Reference: patent US9447149B2, “Methods and compositions for the rapid synthesis of radiometal-labeled probes” (University of Southern California, priority 2012, dated 2016)

Assays:
[1] = Probe stability in PBS by radio-HPLC; format: physicochemical; conditions: for parent [64Cu]1 remaining (radiochemical purity): PBS, room temperature
Description: The in vitro stability of [^64Cu]1 was evaluated in PBS buffer by radio-HPLC. […] This high stability is attributed to Sar cage in the conjugate. In addition, it is known that the U87MG cell line over-expresses integrin αvβ3 receptor [13].
All chemicals and solvents were obtained from Aldrich (Milwaukee, Wis., USA) and used without further purification. 1,8-Diamino-3,6,10,13,16,19-hexaazabicyclo[6.6.6]-eicosine was purchased from Areva Med (Dallas, Tex.). ^125I-Echistatin was obtained from Perkin-Elmer (Waltham, Mass.). ^1H and ^13C nuclear magnetic resonance (NMR) were recorded on a Varian 400 MHz spectrometer. Mass spectrum was obtained on a ThermoElectron Finnigan LTQ mass spectrometer equipped with an electrospray ionization (ESI) source (Thermo Scientific, USA). HPLC analyses were carried out on an analytical reversed-phase high performance liquid chromatography (HPLC) system equipped with a dual UV absorbance detector (Waters 2487) using a phenomenex C18 RP (250×4.6 mm 5 micron). The flow was 1 mL/min, with the mobile phase starting from 100% solvent A (0.1% TFA in water), followed by a gradient mobile phase to 20% solvent A and 80% solvent B (0.1% TFA in acetonitrile) at 30 min. The UV absorbance was monitored at 214 nm and the identification of the peptides was confirmed based on the UV spectrum using a PDA detector. The radioactivity was detected by a model of Ludlum 2200 single-channel radiation detector. The stability study was performed under the same HPLC condition. MicroPET scans were performed on a microPET R4 rodent model scanner (Siemens Medical Solutions USA, Inc., Knoxyille, Tenn.). The scanner has a computer-controlled bed and 10.8-cm transaxial and 8-cm axial fields of view (FOVs). It has no septa and operates exclusively in the 3-dimensional (3D) list mode. Animals were placed near the center of the FOV of the scanner.
The stability of [^64Cu]1 was tested in PBS. In brief, 3.7 MBq of the [^64Cu]1 was pipetted into 0.5 mL of the PBS and incubated in PBS at room temperature. At various time points (1, 6, and 24 h), an aliquot of the solution was taken and the radiochemical purity was determined by reverse-phase HPLC under identical conditions. The parent [^64Cu]1 was determined to be >99%, 98%, and 96% at 1, 6, and 24 h, respectively.

[2] = Partition coefficient (1-octanol/PBS); format: physicochemical; conditions: 1-octanol / PBS pH 7.4, triplicate
Description: The partition coefficient value was expressed as log P. Log P of [^64Cu]1 was determined by measuring the distribution of radioactivity in 1-octanol and PBS. Approximately 111 kBq of [^64Cu]1 in 2 μL of PBS (pH=7.4) was added to a vial containing 0.5 mL 1-octanol and 0.5 mL of PBS (pH=7.4). After vigorously vortexing for 10 min, the vial was centrifuged at 12,500 rpm for 5 min to ensure the complete separation of layers. 200 μL of each layer was pipetted into test tubes, and radioactivity was measured using a gamma counter (Perkin-Elmer Packard Cobra). The mean value was calculated from triplicate experiments. The log P value of [^64Cu]1 was determined to be […].

in vivo = experiment: in vivo; design: species or system mice; conditions: female, athymic nude, mouse, iv, 7.4 MBq, total radioactivity
Description: (§1) The in vivo tumor-targeting efficacy of [^64Cu]1 was evaluated in nude mice bearing U87MG human glioma xenograft tumors (n=3) by static microPET scans at 2, 4, and 20 h after tail-vain injection of [^64Cu]1. U87MG tumors were clearly visualized at all time points examined. […] At 2 h post injection, the tumor/liver, tumor/kidneys, and tumor/muscle ratios reached 2.82±0.76, 2.22±1.49, and 11.79±2.65, respectively. Consequently, the high tumor-to-nontumor ratios provided excellent contrast for PET imaging. Blocking experiment was conducted to confirm the integrin αvβ3 specificity of [^64Cu]1.
(§2) All animal studies were approved by the University of Southern California Institutional Animal Care and Use Committee. Female athymic nude mice (about 4-6 weeks old, with a body weight of 20-25 g) were obtained from Harlan Laboratories (Livermore, Calif.). The U87MG human glioma xenograft model was generated by subcutaneous injection of 5×10^6 U87MG human glioma cells into the front flank of female athymic nude mice. The tumors were allowed to grow 3-5 weeks until 200-500 mm^3 in volume. Tumor growth was followed by caliper measurements of the perpendicular dimensions.
(§3) MicroPET scans and imaging analysis were performed using a rodent scanner (microPET R4 scanner; Siemens Medical Solutions). About 7.4 MBq of [^64Cu]1 was intravenously injected into each mouse (n=3) under isoflurane anesthesia. Five-minute static scans were acquired at 2, 4, and 20 h pi. The images were reconstructed by a two-dimensional ordered-subsets expectation maximum (OSEM) algorithm. For each microPET scan, regions of interest were drawn over the tumor, normal tissue, and major organs on the decay-corrected whole-body coronal images. The radioactivity concentration (accumulation) within the tumor, muscle, liver, and kidneys were obtained from the mean value within the multiple regions of interest and then converted to % ID/g.

[3] = tested on: U87MG human glioma xenograft tumors; experiment: in vivo; design: species or system mice; conditions: mouse, 10 mg/kg
Description: as §1, §2, §3

integrin αvβ3 = target: T1, integrin αvβ3 (Homo sapiens, UniProt P05106+P06756); experiment: Integrin αvβ3 receptor binding assay (competitive displacement of 125I-echistatin on U87MG cells); conditions: 125I-echistatin radioligand, 3 h, room temperature
T1 construct: host or cells: U87MG human glioblastoma cells (whole cells in suspension)

SMILES | release of 64Cu from the conjugate ([1]; PBS buffer, over a period of 24 h, radio-HPLC) | parent [64Cu]1 remaining (radiochemical purity) ([1]; 1 h) [%] | parent [64Cu]1 remaining (radiochemical purity) ([1]; 6 h) [%] | parent [64Cu]1 remaining (radiochemical purity) ([1]; 24 h) [%] | logP [2] | tissue uptake at 2 h (in vivo) [%ID/g] | tissue uptake at 4 h (in vivo) [%ID/g] | tissue uptake at 20 h (in vivo) [%ID/g] | tissue to tissue ratio at 2 h (in vivo; tumor/kidneys ratio) | tissue to tissue ratio at 2 h (in vivo; tumor/liver ratio) | tissue to tissue ratio at 2 h (in vivo; tumor/muscle ratio) | uptake values of normal organs (liver, kidneys, muscle) with blocking [3] | IC50 (integrin αvβ3) [nM]
N=C(N)NCCC[C@@H]1NC(=O)[C@H](CCCCNC(=O)[C@H]2O[C@@H](CNC(=O)Cn3nnc4c3-c3ccccc3CN(C(=O)CCNC(=O)CCOCCOCCOCCOCCOCCC(=O)NC35CNCCNCC(N)(CNCCNC3)CNCCNC5)c3ccccc3-4)[C@H](O)[C@@H](O)[C@H]2O)NC(=O)[C@@H](Cc2ccccc2)NC(=O)[C@H](CC(=O)O)NC(=O)CNC1=O [[^64Cu]1, metal not drawn] | no release of ^64Cu from the conjugate | > 99 | 98 | 96 | 4.94 ± 0.1 | 4.96 ± 0.65 | 4.11 ± 0.48 | 2.41 ± 0.31 | 2.22 ± 1.49 | 2.82 ± 0.76 | 11.8 ± 2.65 | lower than those without coinjection of c(RGDyK) | –
N=C(N)NCCC[C@@H]1NC(=O)[C@H](CCCCNC(=O)C2O[C@H](CNC(=O)Cn3nnc4c3-c3ccccc3CN(C(=O)CCNC(=O)CCOCCOCCOCCOCCOCCC(=O)N[C@]35CNCCNC[C@](N)(CNCCNC3)CNCCNC5)c3ccccc3-4)[C@H](O)C(O)[C@@H]2O)NC(=O)[C@@H](Cc2ccccc2)NC(=O)[C@H](CC(=O)O)NC(=O)CNC1=O (stereo partly shown) [compound 1] | – | – | – | – | – | – | – | – | – | – | – | – | 170 ± 3
